The nanobody polyreactivity screen of Harvey et al. (2022)

Assay: yeast display, Sf9 membrane polyspecificity reagent, FACS + sequencing; frameworks hold sequencing errors
Method in brief: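 After 36–48 hours of galactose induction, yeast (Saccharomyces cerevisiae BJ5465) displaying a synthetic nanobody library were stained at 4 °C for 1 hour with 10% biotinylated, detergent-solubilized Sf9 membrane reagent. Streptavidin microbeads enriched the stained cells before FACS sorting into low and high (top ~1%) gates on anti-HA and streptavidin fluorescence. Each clone's polyreactivity label reflects its gate of origin.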

Sequence | polyreactivity (PSR sort gate)
QVQLVESGGGLVQAGASLRLSCAASGRTYRWYTMGWYRPAPGKERELVAAITSRGGSTYADSVKGRFTISRDNAKNTVYLQMNSLKPEDTAVYYCNAARTYQYDYWGQGTQVTVSS | high polyreactivity
QVQLVESGGGLVQAGGSLRLSCAASGFTIRSYVMGWYRQAPGKERELVAAIRRSGGSTYYADSVKGRFTISRDNAKNTVYLHMNSMKPEDTAVYYCAAKAYTYYARIGFDYWGQGSQVTVSS | high polyreactivity
QVQLVESGGGLVQAGGSLRLSCAASGRTFAWYAMGWYRQAPGKERELVAAITTRGSGTYYADSVKGSFTISRDNAKNTVYLQMHSLKPEDTAVYYCAKDPITATTLDERVYYWGQGTQVTVSS | low polyreactivity
QVQLVESGVGLVQAGGSLRLSCAASGRIFSFYAMGWYRQAPGKERELVAAITYTDGSTYAVSVKGRFTISRDYAKNTVYLQTNSLKPEDTAVYYCATRYRWTPYDYWGQGTQVTVSS | low polyreactivity
QVQLEESGGGLVQPGGSLRLSCAASGTTIGHNAMGLYREAPGKERELVAAISNSGTRTYYADSVKGRFTISRDNAKNTVYLQMNILKPEDTAVYDCAARYYHIYTKYLQGSDYWGQGTQVTVSS | high polyreactivity
QVQLVESGGGLGQAGGSLRLSCAASGFIFVWYAMGWYRQAPGKERELVAAINWSGGHTYYADSVKGRFTISRDNSKNTVYLQMNSLKPEDTAVYYWNADSLWYWFYPYNYWGQGTQVTVSS | low polyreactivity
QVQLVESGGGLVQAGRCLRLSCAASGITFVPNAMGWSRQAPGKERELVAAISSGGTYADSVKGRFTISRDNAKNTVYLQMNSLKPEDTALYYCNADTDYIRWIYGYWGQVTQVTVSS | low polyreactivity
QVQLQESGGGLVQAGGSLRLSCAASGTISDSGLMGWYRQAPGKERELVAGISSGGITNYADSVKGRFTISRDNAKNSVDLQMNSLKPEDTAVYWGRGTQVTVSS | low polyreactivity
QVQLVESGGGLVQAGGSLRLSCAASGSTLPTNAMLWYRQAPGKEREFVAAISDNGGSTYYADSVKGRFTISRDNAKNTVYLQMNSLKPEDTAVYYCAADNFGPEFYYWGQGTQVTVSS | low polyreactivity
QVQLVESGGGLDQAGGSLRLSCAASGSTLGYNVMGWYRQAPGKERELVAAISGDGSTNYADSVKGRFTISRDNAKNTVYLQMNSLKPEDTAVYYCAARPGWFAGYEYWGQGTQVTVSS | low polyreactivity
QVQLVESGGGLVQAGGSLRLSCAASGRTFLRNTMGWYRQAPGKERELVAAISRSGATTYYADSVKGRFTISRDNAKNTVYLQMNSLKPADTAVYYCAALGQGRTSATSFVDYEYWGQGTQVTVSS | high polyreactivity
QVQLVESGGGLVQAGGSLRLSCAASGSTFKYYAMGWYRQAPGKERELVARISSGGRTYYADSVKGRFTISRDNAKNTVYLQMNSLKPEDTAVYYCNAQGYTTYRGDYWGQGTQVTVSS | high polyreactivity
QVQLVESGGGLVQSGVSLRLSCAASGSIFDPYAMGWYRPAPGKERELVAAITSGGSTYYADSVKGRFTISRDNAKNTVYLQMNSLKPEDTAVYYCAKDFDIYYSKYDYWGQGTQVTVSS | low polyreactivity
QVQLVESGGGLVQAGGSLRLSCAASGRISRFYAMGWYRQAPGKERELVAGIRSGDSTNYADSVKGRFTISRDNAKNTVYLQMNSLKPEDTAVYYCAAVVFSDGRYGRANRMYYWGQGTQVTVSS | high polyreactivity
QVQLVESGGGLVQAGGSLRLSCAASGSTFYAYTMGWYRKAPGKERELVAGISRRGGTTYYADSVKGRFTISRDNAKNTVYLQMNSLKPEDTAVYYCAADKTKPQASEGYYAYYYWGQGTQVTVSS | low polyreactivity
QVQLVESGGGLVQAGGSLRLSCAASGGIFNYYAMGWYRPAPGKVRELVAAISASGGSTYYADSVKGRFTISRDNAKNTVYLQMNSLIQEDTAVYYCAAGLPYGYGYDYWGQGTQVTVSS | low polyreactivity
QVQLVESGGGLVQAGGSLRLSCAASGSTIYGYAMGSYRQAPGKERELVAAISISGGGTYYADSVKGRFTISRDNAKNTVYIQMNSLKPEDTAVYYCARRYFWGQGTQVTVSS | low polyreactivity
QVQLVESGGGLVQAGGSLRLSCAASGFILDNYAMGWYRQAPGKERELVAAISGSGGSTYYADSVKGRFTISRDNAKNTVYLQMNSLKPEDTAVYYCNRDRLLRQYDYWGQGTQVTVSS | high polyreactivity
QVQVVESGGGLVQAGGSLRLSCAASGSTFEYNAMGWYRQAPGKERELVASSTNYADSVKGRFTISRDNATNTVYLKMNSLKPEDTAVYYCAREQGVNRNHDYWGQGTQVTVSS | low polyreactivity
QVQLVESGGRLVQAGGSLRLSCAASGFTFRYYAMGWYRQAPGKERELVAAINSGGSTNFADSVKGRFTISRDNAKNTVYLQMNSLKPEDTAVYYCAKRGRRGIVYLGSAEMDYWGQGTQVTVSS | low polyreactivity
QVQLVESGVGLVQAGGSLRLSCAASGSTFDTYAMGWYRQAPGKERELVAAITSSGSTYYADSVKGRFTISRDNAKNTVYLQMNSLKPEDTAVYYCAADLSYLYAHNPGDYWGQGTQVTVSS | low polyreactivity
QVQLVESGGGLVQAGGSHRLSCASSGIIFAWYVMGWSRQAPGKDSELVAAITQSGGSTFYADSVKGRFTISRDNAKNTVYLQMNSLKPEDTEVYYCNTEDFFNVPEMDSWGQGTQVTVSS | low polyreactivity

Sequence | polyreactivity (PSR sort gate)
QVQLVESGGGLVQAGGSLRLSCAASGSTFTINVMGWYRQAPGKERELVAAINCGGRTNYADSVKGRFTISRDNAKNTVYLQMNSLKPEDTAVYNCAADGRSNVRQMDYWGQGTQVTVSS | low polyreactivity
QVQLVESGGGLVQAGGSLRLSCAASGRTFRGNTMGWYRQAPGKERELVAAISRGGSTNYADSVKGRFTISRDNTKNTVYLQMNSLTPEDTAVYYCAKDRYVRWGRTFEFDYWGQGTQVTVSS | low polyreactivity
QVQLVESGGGLVQAGGSLRLSCDASGFTFDDYAMGWYRQAHGNEMELVAAISSSRDSTYNADSVKGRFTISRDYEKNTVYLQINSLKPQDTAVYYCAAEYDREEYSGYDYWGEGTQVTVSS | low polyreactivity
QVQLVESGGGLVQAGGSLRLSCAASGSTFLNYAMGWYRQAPGKERELVAAITGSGGRTYYADSVKGRFTISRDNAKNTVYLQMNSLKPEDTAVYYCAASATYDPHDYWGQGTQVTVSS | high polyreactivity
QHQLVESGGGLVQAGGSLRLSCAASGRTFHRNAKGWYRQAPWQERELVAAITGSGGSTYYADSVKGRFTISRDNAKNTVYLQMYSLKPEDTAVYYCATYSYPERTGGQRTHYYWGQGTQVTVSS | high polyreactivity
QVQLVESGGGLVQAGGSLRLSCAASGRTIAYNAMGWYRQAPGKERELVAAISWSGGSTYYADSVKGRFTISRDNAKNTVYLQMNSLKPEDTAVYYCAKRFGQYRYPYDYWGQGTQVTVSS | high polyreactivity
QVQLVESGGGLVQAGGSLRLSCAASGSIFPDYDMGWYRQAPGKERELVAAISSSGDSTYYADSVKGRFTISRDIAKNTVYLQMNSLKPEDTAVYYCAVDGTRSTSNGSEFTGYNYWGQGTQVTVSS | low polyreactivity
QVQLVESGGGLVQAGGSLRLSCAASGIIYDAYAMGWYRQAPGKERELVAAISSGGSTYYADSVKGRFTISRDNAKNTVSLQMNSLKPEDTAVYYCAAETEYPSWYDYWGQGTQVTVSS | low polyreactivity
QVQLVESGGGLVQAGGSLRLSCAASGRTFLVYAMGWYRQAPGKERELVAAISFSDGITYYADSVKGRFTISRDNAKNTVYIQMNSLKPEDTAVYYCATEILDYYYGSEYDYWGQGTQVTVSS | high polyreactivity
QVQLVESGGGLVQAGGSLRLSCAASGRIFVVNAMGWYRQAPGKERELVAAISSSSDSTYYADSVKGRFTISRDNAKNTVYLQMNSLKPEDTAVYYRAADYHYDGYWIYDYWGLGTQVTVSS | high polyreactivity
QVQLVESGGGLVQAGGRLRLSCAASGITFYENAMGWYRQAPGKERELVAAISYSGGNTYPDSVKGRFTISRDNEKNTVYLQMNSLKPEDTAVYYCNADYAGWGEYDYCGQGTQVTVSS | low polyreactivity
QVQLVESGGGLVQAGGSLRLSCAASGRTFPGNAMGWYRQAPGKERELVAAISWSGTRTYYADSVKGRFTISRDNAKNTVYLQINSLKPEDTAVYYCAARRYGVRSYGFDSWGQGTQVTVSS | high polyreactivity
QVQLVESGGGLVQAGGSHRLSCAASGSTFFSYAMGWYRQAPGKERELVAAITSNGGTTHYADSVKGRFTISRDNAKNTVYLQMNSLKPEDTAVYYCAKAQGHVRGSRGLQGGRYDYWGQGTQVTVSS | low polyreactivity
QVQLVESGGGLVQAGGSLRLSCSASGSILSAYDMGWYRQATGKERELVAAIDSSGGSTYYADSVKGRFTISRDNAKNTVYLQMNSLKPEDTAVYYCAATSLAGYYKFDYWGQGSQVTVSS | low polyreactivity
QVQLVESGGGLVQEGGSLRLSCAASGSTFERNAMGWYRQAPGKERELVAAISAIGDSTYYADSVKGRFTISRDNAKNTVYLQMKSLNPEDTAVYYCAARYTRYHIGRGYYYWGQGTQVTVSS | high polyreactivity
QVQLVESGGGLVQAGGSLRLSCAASGRIVKFYDMGWYRQAPGKEREFVAAISRRGSSTYYADSVKGRFTISRDNAKNTVYLQMNSLKPEDTAVYYCAADWTFGAIGYYYWGHGTQVTVSS | high polyreactivity
QVQLVESGGGLVQAGGSLRLSCAASALTFHFNAMGWYRQAPGKERELVASITSSGGSTYYADSVKGRFTISRDNAKNTVSLQMNSLKPEDTAVYYCNAEGSSVLTGYWGYPPYWDTYDYSGQGTQVTVSS | low polyreactivity
QVQLVESGGGLVQAGGSLRLSCAASGSTFAFYDMGWYRQAPGKERELVAAISPSDGDTYYADSVKGRFTISRDNAKNTVYLQMNSLKPEDTAVYYSAAETSHNPEYERGSDYWGQGTQVTVSS | low polyreactivity
QVQLVESGGGLVQAGGSLRFSCAASGSTFSYYTMGWYRQAPGKERELVATISRRGASTYYADSVKGRFTISRDNAKNTVYLQMNSLKPEDTAVYYCAKSYYYGRSATRPEYDYWGQGTQVTVSS | high polyreactivity
QVQLVESGGGLVQAGGSLRLSCAASGGISSSNAMGGYRQAPGKERELVAGINSRGGSTYADSVKGRFTISRDNAKNTVYLQMKSLKPEDTAVYYCAAAPTYKWRRKNYDYWGQGTQVTVSS | high polyreactivity
QDQVVESGGGVVQAGGSLRLICAAYGSTLRYYDMGWYRQAPGKERELVAAISRGCSTYYADSVKGRFTISRDNAKNTVYLLMNSLKPEETAVFYCNKEYPSSYEYDYWGQGTQVTVSS | low polyreactivity
